This assay deals with T1, Gab2 448-460 (Homo sapiens).
T1 chain: Dansyl-TNSEDN[pY]VPMNPG
Kind of assay: stopped-flow FRET.

Where no end group is shown, it is not given here. [ ]: non-standard residue; d: D form. The star is where a group is joined. pY = N[C@@H](Cc1ccc(OP(=O)(O)O)cc1)C(=O)O; Dansyl = CN(C)c1cccc2c(S(=O)(=O)*)cccc12

B1: PI3K p85alpha N-SH2 N-SH2 (protein)
chain: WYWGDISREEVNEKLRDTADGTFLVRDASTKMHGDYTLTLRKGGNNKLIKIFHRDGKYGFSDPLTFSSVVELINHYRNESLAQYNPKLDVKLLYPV
With B1, the dissociation constant Kd came out at 200 nM.

For the origin of these results see paper PMC7247818 (2020).
